Results from a protein production outcome set (Wang et al. 2014).

Assay: label from the status in PepcDB records
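Further: failed if final PepcDB status was selected cloned or expressed and not failed if soluble or beyond.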

MLSRLSLLSNSRAFQQARWRIYRLKVSPTVHASQYHILSGRKLAQSIREKANDEIQAIKLKHPNFKPTLKIIQVGARPDSSTYVRMKLKASKDSNVDCIIEKLPAEITEVELLKKISDINDDDSIHGLLIQLPLPRHLDETTITNAVDFKKDVDGFHRYNAGELAKKGGKPYFIPCTPYGCMKLLEEAHVKLDGKNAVVLGRSSIVGNPIASLLKNANATVTVCHSHTRNIAEVVSQADIVIAACGIPQYVKSDWIKEGAVVIDVGINYVPDISKKSGQKLVGDVDFDSVKEKTSYITPVPGGVGPMTVAMLVSNVLLAAKRQFVESEKLPVIKPLPLHLESPVPSDIDISRAQSPKHIKQVAEELGIHSHELELYGHYKAKISPNIFKRLESRENGKYVLVAGITPTPLGEGKSTTTMGLVQALSAHLGKPSIANVRQPSLGPTLGVKGGAAGGGYAQVIPMDEFNLHLTGDIHAISAANNLLAAAIDTRMFHEATQKNDSTFYKRLVPRKKGIRKFTPSMQRRLKRLDIEKEDPDALTPEEVKRFARLNINPDTITIRRVVDINDRMLRQITIGEAATEKGFTRTTGFDITVASELMAILALSKSLHEMKERIGRMVIGADYDNKPVTVEDIGCTGALTALLRDAIKPNLMQTLEGTPVMVHAGPFANISIGASSVIADLMALKLVGSEKNPLNDKNIHEPGYVVTEAGFDFAMGGERFFDIKCRSSGLVPDAVVLVATVRALKSHGGAPNVKPGQSLPKEYTEENIDFVAKGVSNLVKQIENIKTFGIPVVVAINRFETDSQAEIEVIKKAALNAGASHAVTSNHWMEGGKGAVELAHAVVDATKEPKNFNFLYDVNSSIEDKLTSIVQKMYGGAKIEVSPEAQKKIDTYKKQGFGNLPICIAKTQYSLSHDPSLKGVPRGFTFPIRDVRASIGAGYLYALAAEIQTIPGLSTYAGYMAVEVDDDGEIEGLF
protein production: failed

MKPGGTVRALDRLGSAEYPSSHMEVLVAEGTRPSRQRNQAAAAAAGEILYFLDDDSLTSPDFLARAAAHLADPSIAAVGGPSLTPASDSRFQRAIGVVLASRLGGGGARNRYRATGSPRRTSERELILCNLAMRRDVFLAEGGLDERLYPNEENELMDRISKRGMSLVHDPDLAVRRSQRPTFRAFVRQFFGYGRGRGEQTRIAGVRSVVDFLPTVFLIYLLLLPVAPWAPCFLPAALYGAAVMVSALSGAVHSRLYAALPWLVVLYPTLHLCYGAGLLKGLLAPRFRSGGGETAPVTIRCVKEFGTPWHLPAHGPREVPR
protein production: failed

ALPDPVKPKAPKAVNPFHLGMAGYTFVNFDLDTTLKTLERLDIHYLCIKDFHLPLNSTDEQIRAFHDKCAAHKVTGYAVGPIYMKSEEEIDRAFDYAKRVGVKLIVGVPNYELLPYVDKKVKEYDFHYAIHLHGPDIKTYPDATDVWVHTKDLDPRIGMCLDVGHDLRNGCDPVADLKKYHTRVFDMHIKDVTDSSKAGVGIEIGRGKIDFPALIRMMREVNYTGMCSLEYEKDMKDPFLGIAESIGYFKAVSDLT
protein production: not failed

MGIHKPKFYAVRAGRDKGVFSSWEECRKAIYGFSGAVYRSFPTLEEAQAWFKGETLSDPLKAEDDSLRDDRTEYDVYTDGSYVNGQYAWAYAFVKDGKVHYEDADVGKNPAAATMRNVAGEIAAALYAVKKASQLGVKIRILHDYAGIAFWATGEWKAKNEFTQAYAKLMNQYRGIYSFEKVKAHSGNEFNDYVDMKAKSALGIRDLEHHHHHH
protein production: failed

MVLKGDAKRIVAMSSTHIAMLDAIGEVRCITGVSGIDYISNPDIQARRDSIGDVGYEGNINYELLLSLDPDLVLLYGVNGASAMESKLEELDIPFMYVGDYLEESPLGKAEWMVVLSEVTGKREKGEKAFAAIPVRYNALKKKVADSTLGLEHHHHHH
protein production: not failed

MNAVHFGAGNIGRGFIGEILAKNGFHITFVDVNETIIQALKERKSYTIELADASHQQINVENVTGLNNMTEPEKVVEAIAEADLVTTAIGPNILPRIAELIAQGIDARAEANCQKPLDIIACENMIGGSTFLAEEVAKYLKNPAYAEQWIGFPDAAVDRIVPLQKHEDPLFVQVEPFCEWVIDDTNRKAKEIQLEGVHYVADLEPYIERKLFSVNTGHATVAYTGALLGYQTIDEAMQDALVVAQLKSVLQETGKLLVAKWNFDEQEHAAYIEKIIQRFQNKYISDAITRVARTPIRKLGAQERFIRPIRELQERNLVSPHLLAMIGIVFNYHDPEDEQSRQLQEMLDQESVDTVIAEVTGIEDPETVKNIKQNVERYARPQVA
protein production: failed

MTLQETLNSEYQISFEEAQATAKIVDDLAEAEQKLKNLERQIKALGPINLDAIAQFDEVNERFTFLSSQKDDLLEAKNLLLSTIDDMNDEVKIRFKTSFDAIRESFKTTFAQMFVSGLADLELTSDNLLEAGVEIKVQPPGKKLSSLNLMSGGEKALTALALIFAILRVRTVPFVVLDEVEAALDEANVKRFGDYMNHFDNSNQFIVVTHRRGTMAAAGSMYGVTMADAGVSKMISVKLDSAIN
protein production: failed
